The record followed here is US5928915A, “CHO cell sialidase by recombinant DNA technology” (Genentech, Inc., priority 1997, dated 1999).

Holding throughout (test): Sialidase kinetic constants with soluble sialylglycoconjugate substrates
Type in all cases: biochemical, Chinese hamster
Common to all, as to details: other: apparent; standard assay conditions; average of duplicates, relative error about 10%; 37.0 °C

Substrate in series [1]: CC(=O)N[C@H]1[C@H]([C@H](O)[C@H](O)CO)O[C@@](OC[C@H]2O[C@@H](O[C@H]3[C@H](O)[C@@H](O)C(O)O[C@@H]3CO)[C@H](O)[C@@H](O)[C@H]2O)(C(=O)O)C[C@@H]1O
Description: (§1) Fluorescent sialidase assays: Standard assay conditions for monitoring the enzyme activity during purification using the fluorescent substrate analog are: 1.3 mM 4-MUNeu5Ac, 50 mM phosphate buffer, pH 6.8, 0.3 mg bovine serum albumin and varying amounts of enzyme in a total volume of 30 μl. After addition of enzyme the samples are incubated at 37° C. in a shaking water bath for 5 minutes. The reaction is terminated and the fluorescence of the liberated umbelliferone is enhanced by the addition of 2 ml of 80 mM glycine-carbonate buffer, pH 9.7. Quantification of the product is made by measuring the fluorescence of the samples with excitation at 365 nm and emission at 450 nm using a standard of 4-methyl umbelliferone. A unit of enzyme activity is defined as a μmol/min of sialic acid liberated.
(§2) Sialidase assays with natural substrates: When natural substrates are tested with the purified enzyme, the amount of released sialic acid is measured using the thiobarbituric acid assay as modified by Uchida [Uchida et al. J. Biochem., 82:1425 (1977)] using sialic acid as standard. The amount of sialic acid in control samples, which include a complete assay mixture incubated without added enzyme is subtracted from each determination. All samples are cleared by centrifugation (1,000×G, 10 min) prior to determining the absorbance at 540 nm.
(§3) Enzyme kinetic parameters: Assay conditions (time and added enzyme) are modified for each substrate so that initial reaction rates are measured. Kinetic parameters are obtained from double reciprocal plots of the substrate saturation curves [Segel, I. H. John Wiley, New York, Enzyme Kinetics, 18 (1975)].
Substrate in series [2]: CC(=O)N[C@H]1[C@H]([C@H](O)[C@H](O)CO)O[C@@](O[C@H](CO)[C@@H](O)[C@@H]2OC(O)(C(=O)O)C[C@H](O)[C@H]2NC(C)=O)(C(=O)O)C[C@@H]1O
Description: as §1, §2, §3
Substrate in series [3]: CC(=O)N[C@H]1[C@H]([C@H](O)[C@H](O)CO)O[C@@](O[C@H]2[C@@H](O)[C@@H](CO)O[C@@H](O[C@H]3[C@H](O)[C@@H](O)C(O)O[C@@H]3CO)[C@@H]2O)(C(=O)O)C[C@@H]1O
Description: as §1, §2, §3
Substrate in series [4]: CC(=O)N[C@H]1[C@H]([C@H](O)[C@H](O)CO)O[C@@](Oc2ccc3c(C)cc(=O)oc3c2)(C(=O)O)C[C@@H]1O
Description: as §1, §2, §3

B1: CHO cell sialidase (Cricetulus griseus) (protein)
chain: MATCPVLQKETLFQTGDYAYRIPALIYLSKQKTLLAFAEKRLTKTDEHADLFVLRRGSYNADTHQVQWQAEEVVTQAYLEGHRSMSPCPLYDKQTRTLFLFFIAVRGQISEHHQLQTGVNVTRLCHITSTDHGKTWSAVQDLTDTTIGSTHQDWATFGVGPGHCLQLRNTAGSLLVPAYAYRKQPPIHAPAPSAFCFLSHDHGSTWELGHFVSQNSLECQVAEVGTGAERVVYLNARSCLGARVQAQSPNSGLDFQDNQVVSKLVEPPKGCHGSVIAFPNPTSKADALDVWLLYTHPTDSRKRTNLGVYLNQKPLDPTTWSAPTLLATGICAYSDLQNMGHGPDGSPQFGCLYESNNYEEIVFLMFTLKQAFPAVFGAQ
notes: The sialidase described was purified from the cell culture fluid of a single production cell line (CHO 14.16); endogenous in cells; host or cells: CHO 14.16 cells (purified from the cell culture fluid)
With B1, the Michaelis-Menten constant (Km) came to 1200 µM in series [1], 3400 µM in series [2], 1300 µM in series [3] and 400 µM in series [4]. The Vmax is 4 µmol/min/mg in series [1], 11 µmol/min/mg in series [2], 16 µmol/min/mg in series [3] and 18 µmol/min/mg in series [4].

One may read the Km as the concentration of substrate that gives half-maximal velocity. As usually defined, the Vmax is the rate approached at saturating substrate.
